B1: EGF: human EGF (CALBIOCHEM) (protein, UniProt P01133 23-1207, looked up)
Pro-epidermal growth factor: PQHWSCPEGTLAGNGNSTCVGPAPFLIFSHGNSIFRIDTEGTNYEQLVVDAGVSVIMDFHYNEKRIYWVDLERQLLQRVFLNGSRQERVCNIEKNVSGMAINWINEEVIWSNQQEGIITVTDMKGNNSHILLSALKYPANVAVDPVERFIFWSSEVAGSLYRADLDGVGVKALLETSEKITAVSLDVLDKRLFWIQYNREGSNSLICSCDYDGGSVHISKHPTQHNLFAMSLFGDRIFYSTWKMKTIWIANKHTGKDMVRINLHSSFVPLGELKVVHPLAQPKAEDDTWEPEQKLCKLRKGNCSSTVCGQDLQSHLCMCAEGYALSRDRKYCEDVNECAFWNHGCTLGCKNTPGSYYCTCPVGFVLLPDGKRCHQLVSCPRNVSECSHDCVLTSEGPLCFCPEGSVLERDGKTCSGCSSPDNGGCSQLCVPLSPVSWECDCFPGYDLQLDEKSCAASGPQPFLLFANSQDIRHMHFDGTDYGTLLSQQMGMVYALDHDPVENKIYFAHTALKWIERANMDGSQRERLIEEGVDVPEGLAVDWIGRRFYWTDRGKSLIGRSDLNGKRSKIITKENISQPRGIAVHPMAKRLFWTDTGINPRIESSSLQGLGRLVIASSDLIWPSGITIDFLTDKLYWCDAKQSVIEMANLDGSKRRRLTQNDVGHPFAVAVFEDYVWFSDWAMPSVMRVNKRTGKDRVRLQGSMLKPSSLVVVHPLAKPGADPCLYQNGGCEHICKKRLGTAWCSCREGFMKASDGKTCLALDGHQLLAGGEVDLKNQVTPLDILSKTRVSEDNITESQHMLVAEIMVSDQDDCAPVGCSMYARCISEGEDATCQCLKGFAGDGKLCSDIDECEMGVPVCPPASSKCINTEGGYVCRCSEGYQGDGIHCLDIDECQLGEHSCGENASCTNTEGGYTCMCAGRLSEPGLICPDSTPPPHLREDDHHYSVRNSDSECPLSHDGYCLHDGVCMYIEALDKYACNCVVGYIGERCQYRDLKWWELRHAGHGQQQKVIVVAVCVVVLVMLLLLSLWGAHYYRTQKLLSKNPKNPYEESSRDVRSRRPADTEDGMSSCPQPWFVVIKEHQDLKNGGQPVAGEDGQAADGSMQPTSWRQEPQLCGMGTEQGCWIPVSSDKGSCPQVMERSFHMPSYGTQTLEGGVEKPHSLLSANPLWQQRALDPPHQMELTQ
modifications: Pro-epidermal growth factor
B2: IL1-α: human recombinant IL1-α (R and D systems Inc.) (protein, UniProt P01583 113-271, looked up)
Interleukin-1 alpha: SAPFSFLSNVKYNFMRIIKYEFILNDALNQSIIRANDQYLTAAALHNLDEAVKFDMGAYKSSKDDAKITVILRISKTQLYVTAQDEDQPVLLKEMPEIPKTITGSETNLLFFWETHGTKNYFTSVAHPNLFIATKQDYWVCLAGGPPSITDFQILENQA

System: osteosarcoma 143 cells
Assay: PGE2 synthesis by osteosarcoma 143 cells in response to arachidonic acid after treatment with growth factors/cytokines
Type: cell-based, human
Settings: within a 3-hour period, 1% serum, relative to cells grown in the absence of these factors

Molecule | levels of PGE2 synthesis by osteosarcoma 143 cells in response to arachidonic acid (15 ng/ml) | levels of PGE2 synthesis by osteosarcoma 143 cells in response to arachidonic acid (10 pg/ml)
B1 | increased | –
B2 | – | increased
